{"source": "paper PMC7156385", "about": "“Proper chromosome alignment depends on BRCA2 phosphorylation by PLK1” (Nature Communications, 2020)", "key": {"[1]": {"molecular_target": "BRCA2_(190-284) phosphorylated by PLK1 (human) (UniProt P51587)", "sequence (P51587 190-284)": "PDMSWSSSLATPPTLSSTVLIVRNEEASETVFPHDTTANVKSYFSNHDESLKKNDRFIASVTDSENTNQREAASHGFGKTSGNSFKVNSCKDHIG", "test": "ITC; PLK1 PBD (326-603) and BRCA2 peptides; 50 mM Tris-HCl pH 8.0, 150 mM NaCl, 5 mM β-ME, 293 K, VP-ITC, one-site binding model"}, "[2]": {"molecular_target": "endogenous BUBR1 (human (endogenous in DLD1)) (UniProt O60566)", "sequence (O60566 whole entry)": "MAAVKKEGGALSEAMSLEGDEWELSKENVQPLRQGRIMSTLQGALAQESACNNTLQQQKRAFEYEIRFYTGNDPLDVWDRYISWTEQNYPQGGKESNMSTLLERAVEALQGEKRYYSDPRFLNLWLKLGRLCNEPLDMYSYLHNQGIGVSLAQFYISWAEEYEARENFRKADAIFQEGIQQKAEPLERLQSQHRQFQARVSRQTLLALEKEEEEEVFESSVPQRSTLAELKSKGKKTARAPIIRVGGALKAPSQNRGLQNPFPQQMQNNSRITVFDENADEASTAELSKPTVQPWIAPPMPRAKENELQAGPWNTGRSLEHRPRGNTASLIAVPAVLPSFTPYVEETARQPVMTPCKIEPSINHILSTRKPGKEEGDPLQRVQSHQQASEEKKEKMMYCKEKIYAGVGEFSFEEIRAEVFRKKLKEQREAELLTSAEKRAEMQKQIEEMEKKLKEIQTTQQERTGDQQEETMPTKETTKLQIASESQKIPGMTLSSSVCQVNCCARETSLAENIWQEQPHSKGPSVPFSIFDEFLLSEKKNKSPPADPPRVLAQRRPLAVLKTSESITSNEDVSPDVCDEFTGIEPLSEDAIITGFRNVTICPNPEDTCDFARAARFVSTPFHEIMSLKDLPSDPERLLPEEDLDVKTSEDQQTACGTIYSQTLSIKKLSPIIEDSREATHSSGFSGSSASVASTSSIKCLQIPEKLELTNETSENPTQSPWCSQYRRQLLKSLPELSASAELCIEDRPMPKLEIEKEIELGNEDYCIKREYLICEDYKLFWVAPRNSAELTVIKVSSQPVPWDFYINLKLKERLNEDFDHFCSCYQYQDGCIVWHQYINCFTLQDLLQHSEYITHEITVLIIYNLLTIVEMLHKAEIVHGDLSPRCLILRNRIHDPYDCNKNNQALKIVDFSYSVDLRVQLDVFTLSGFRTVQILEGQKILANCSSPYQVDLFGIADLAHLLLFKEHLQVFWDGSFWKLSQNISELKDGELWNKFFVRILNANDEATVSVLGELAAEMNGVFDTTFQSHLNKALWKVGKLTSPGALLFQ", "test": "co-IP; immunoprecipitation of endogenous BUBR1 with mouse anti-BUBR1 antibody from nocodazole-treated DLD1 BRCA2-/- stable clones expressing BRCA2 WT or variants; extraction buffer A, washes up to 500 mM NaCl; western blot for PP2A-C and PLK1"}, "[3]": {"molecular_target": "purified 2xMBP-BRCA2_(1-250) T207A (human) (UniProt P51587)"}, "[4]": {"molecular_target": "T1, PLK1 Polo-box domain (amino acid 326 to amino acid 603) (UniProt P53350 326-603)", "T1 construct": "PLK1, Polo-box domain, amino acids 326 to 603, amplified from Addgene pTK24; also called PLK1PBD; PLK1 PBD (326-603); source: E. coli Tuner pLacI pRare, purified (His-Trap, SUMO protease, Ni-NTA, Superdex)", "T1 sequence (P53350 326-603)": "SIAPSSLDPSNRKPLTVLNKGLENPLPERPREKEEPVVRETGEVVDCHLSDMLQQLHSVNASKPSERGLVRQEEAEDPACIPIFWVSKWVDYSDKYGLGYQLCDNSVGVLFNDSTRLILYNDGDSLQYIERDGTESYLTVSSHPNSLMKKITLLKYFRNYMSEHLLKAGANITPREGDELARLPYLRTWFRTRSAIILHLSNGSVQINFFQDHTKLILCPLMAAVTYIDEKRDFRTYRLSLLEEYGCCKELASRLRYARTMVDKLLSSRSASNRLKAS", "test": "ITC; PLK1 PBD (326-603) and BRCA2 peptides; 50 mM Tris-HCl pH 8.0, 150 mM NaCl, 5 mM β-ME, 293 K, VP-ITC, one-site binding model", "conditions": "both partners purified"}, "recombinant PLK1": {"molecular_target": "T2, recombinant PLK1 (UniProt P53350 1-603)", "T2 construct": "Polo-like kinase 1 (PLK1), cDNA from Addgene pTK24 cloned into pFast-Bac HT; also called 6xHis-PLK1; PLK1-WT; source: Sf9, purified (Ni-NTA, Capto S) or bought: Abcam", "test": "pull-down; in vitro kinase reaction (0.2 µg PLK1 or PLK1-KD, 0.5 µg 2xMBP-BRCA2_(1-250), kinase buffer with 250 µM ATP or without ATP, 30 min at 30 °C) followed by amylose beads for 1 h at 4 °C, washes with 0.5% NP-40 and 0.1% Triton X-100, elution with 10 mM maltose; western blot", "conditions": "both partners purified"}}, "note": "[ ]: non-standard residue; d: D form. pT = C[C@@H](OP(=O)(O)O)[C@H](N)C(=O)O; pS = N[C@@H](COP(=O)(O)O)C(=O)O", "data": [{"molecule": "PLK1 Polo-box domain (amino acid 326 to amino acid 603) (from UniProt P53350 326-603) (domain or fragment)", "values": [{"measurement": "Kd", "setting": "[1]", "value": 140, "unit": "nM"}]}, {"molecule": "PP2A (detected by its catalytic subunit, PP2AC) (from UniProt P67775 1-309) (cell line)", "values": [{"measurement": "reduction of PP2A co-immunoprecipitated with BUBR1 in BRCA2-T207A cells against BRCA2 WT cells", "setting": "[2]", "value": 30, "unit": "%"}]}, {"molecule": "recombinant PLK1 (from UniProt P53350 1-603) (enzyme)", "values": [{"measurement": "fold decrease in in vitro kinase assay: phosphorylation of 2xMBP-BRCA2 (1-250) by recombinant PLK1 (32P), T207A against WT", "setting": "[3]", "value": 2, "unit": "fold"}]}, {"molecule": "Ac-WSSSLATPPTLSS[pT]VLI-NH2 (SMILES CC[C@H](C)[C@H](NC(=O)[C@H](CC(C)C)NC(=O)[C@@H](NC(=O)[C@@H](NC(=O)[C@H](CO)NC(=O)[C@H](CO)NC(=O)[C@H](CC(C)C)NC(=O)[C@@H](NC(=O)[C@@H]1CCCN1C(=O)[C@@H]1CCCN1C(=O)[C@@H](NC(=O)[C@H](C)NC(=O)[C@H](CC(C)C)NC(=O)[C@H](CO)NC(=O)[C@H](CO)NC(=O)[C@H](CO)NC(=O)[C@H](Cc1c[nH]c2ccccc12)NC(C)=O)[C@@H](C)O)[C@@H](C)O)[C@@H](C)OP(=O)(O)O)C(C)C)C(N)=O, BRCA2, human, residues 194-210, T207 phosphorylated; Used for ITC and for the crystal; also called pT207 peptide; T207 phosphorylated peptide; source: synthetic peptide)", "note": "[BRCA2 17 aa peptide containing pT207 (194WSSSLATPPTLSS{pT}VLI210)]", "values": [{"measurement": "Kd", "setting": "[4]", "value": "90 ± 10", "unit": "nM"}]}, {"molecule": "Ac-DMSWSS[pS]LAT-NH2 (SMILES CSCC[C@H](NC(=O)[C@H](CC(=O)O)NC(C)=O)C(=O)N[C@@H](CO)C(=O)N[C@@H](Cc1c[nH]c2ccccc12)C(=O)N[C@@H](CO)C(=O)N[C@@H](CO)C(=O)N[C@@H](COP(=O)(O)O)C(=O)N[C@@H](CC(C)C)C(=O)N[C@@H](C)C(=O)N[C@H](C(N)=O)[C@@H](C)O)", "note": "[BRCA2 peptide containing pS197]", "values": [{"measurement": "Kd", "setting": "[4]", "value": "17000 ± 2000", "unit": "nM"}]}, {"molecule": "purified 2xMBP-BRCA2_(1-250) WT (domain or fragment, human, UniProt P51587 1-250, looked up, BRCA2, human, amino acids 1 to 250; also called PLK1-phosphorylated BRCA2_(1-250); source: HEK293T, transfected, purified (amylose resin, Bio-Rex 70)) MPIGSKERPTFFEIFKTRCNKADLGPISLNWFEELSSEAPPYNSEPAEESEHKNNNYEPNLFKTPQRKPSYNQLASTPIIFKEQGLTLPLYQSPVKELDKFKLDLGRNVPNSRHKSLRTVKTKMDQADDVSCPLLNSCLSESPVVLQCTHVTPQRDKSVVCGSLFHTPKFVKGRQTPKHISESLGAEVDPDMSWSSSLATPPTLSSTVLIVRNEEASETVFPHDTTANVKSYFSNHDESLKKNDRFIASV", "values": [{"measurement": "binding result", "setting": "recombinant PLK1", "value": "binds"}]}]}
